Reference: publication PMC6685440
Substitutions are numbered along the chain they refer to. Numbers in names are those of the source. Blank lines part the entries; values can stand above or below the binder they belong to.

Molecular target: Heavy meromyosin (HMM)
Test: far-Western, overlay or dot blot

fold binding against wild type: 2 fold
B1: GST-tagged NH2-terminal region of slow myosin binding protein-C (Pro/Ala-rich motif, Ig C1 and M-motif), Y247H (domain or fragment)
chain: MPEPTKKEENEVPAPAPPPEEPSKEKEAGTTPAKDEEEVSPPSALPPGLGSRALERKDSDWTLVETPPGEEQAKQNANSQLSILFIEKPQGGTVKVGEDITFIAKVKAEDLLRKPTIKWFKGKWMDLASKAGKHLQLKETFERHSRVYTFEMQIIKAKDNFAGNYRCEVTYKDKFDSCSFDLEVHESTGTTPNIDIRSAFKRSGEGQEDAGELDFSGLLKRREVKQQEEEPQVDVWELLKNAKPSEHEKIAFQYGITDLRGMLKRLKRMRREEKKSAAFAKILD

fold binding against wild type: 3.5 fold
B2: GST-tagged NH2-terminal region of slow myosin binding protein-C (Pro/Ala-rich motif, Ig C1 and M-motif), E248K (domain or fragment)
chain: B1 chain with H247Y, E248K
